{
  "source": "patent US5536822A",
  "about": "“γ-phosphate linked adenosine 5' triphosphate sepharose” (University of Virginia Alumni Patents Foundation, priority 1994, dated 1996)",
  "proteins": {"B1": {"name": "p42^mapk (Mus musculus) (protein)", "chain": "MAAAAAAGPEMVRGQVFDVGPRYTNLSYIGEGAYGMVCSAYDNLNKVRVAIKKISPFEHQTYCQRTLREIKILLRFRHENIIGINDIIRAPTIEQMKDVYIVQDLMETDLYKLLKTQHLSNDHICYFLYQILRGLKYIHSANVLHRDLKPSNLLLNTTCDLKICDFGLARVADPDHDHTGFLTEYVATRWYRAPEIMLNSKGYTKSIDIWSVGCILAEMLSNRPIFPGKHYLDQLNHILGILGSPSQEDLNCIINLKARNYLLSLPHKNKVPWNRLFPNADSKALDLLDKMLTFNPHKRIEVEQALAHPYLEQYYDPSDEPIAEAPFKFDMELDDLPKEKLKELIFEETARFQPGYRS", "notes": "made in house"}},
  "substrate": "Nc1ncnc2c1ncn2[C@@H]1O[C@H](COP(=O)(O)OP(=O)(O)OP(=O)(O)O)[C@@H](O)[C@H]1O",
  "assay": "Inhibition constant of the ATP derivative / Km for ATP, p42^mapk assay",
  "format": "biochemical",
  "details": "other: p42^mapk; pH 7.4",
  "description": "[γ-^32 P] ATP was synthesized according to the procedure set forth in Johnson et al., Advances in Cyclic Nucleotide Research, 10:135-167 (1979). The catalytic subunit of cyclic-AMP-dependent protein kinase was purchased from Promega. p60^c-arc was obtained from the Department of Microbiology, University of Virginia. Recombinant p42^mapk was purified as described in Haystead et al., (1992) FEBS Lett., 306:17-22. STE7 antibody was obtained from the University of Vancouver, Canada.\nThe 42-kDa MAP kinase (p42^mapk) and MAPKK were assayed as described previously (Haystead et al. (1992) FEBS. Lett., 306:17-22). The cyclic-A kinase assays (30 μl) included 1 μg cyclic-A kinase, 2 mM Kemptide, 50 mM Hepes, pH 7.4, 1 mM dithiothreitol, 200 μM ATP, 5 mM MgCl2. […]\nIn order to assess the effectiveness of adenosine 5'-(γ-4-aminophenyl)triphosphate as an affinity ligand for protein kinases, the inhibition constants (Ki) of the derivative were determined for four different protein kinases, namely, p42^mapk, cyclic-A kinase, MAPKK and p60^c-arc (Table 1). […] This also facilitated comparisons for the relative binding constants determined with other ATP analogs (Flockhart et al. (1984) Eur. J. Biochem., 140:289-295; Hoppe et al. (1972) Eur. J. Biochem., 80:369-372; Taylor et al. (1990) Peptides and Protein Phosphorylation (Kemp et al.) pp 2-32, CRC Press).",
  "data": [
    {"protein": "B1", "values": [
      {"measurement": "Km", "value": "7.5 ± 0.71", "unit": "µM"}
    ]}
  ]
}
